# Measured values published in the supplement of paper PMC9170038.
# What was measured:
# [1] = test system: MS2 coat protein; assay: apparent KD of MS2 coat protein; higher = weaker reporter binding; details: Eterna round: R101
# Description: (§1)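 RNA-MaP: designed FMN/MS2 RNA switches (84 nt design region) are transcribed on-chip within common flanks and titrated with SNAP-549-labelled MS2 coat protein (about 1-3000 nM) in 100 mM Tris pH 7.5, 80 mM KCl, 4 mM MgCl2, without or with 200 uM FMN. Median apparent KD per design; activation ratio = KD,OFF / KD,ON.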
# [2] = test system: MS2 coat protein; assay: apparent KD of MS2 coat protein; designed switch direction (-1 OFF switch, 1 ON switch): 1; higher = weaker reporter binding; details: Eterna round: R98
# Description: as §1
# [3] = test system: MS2 coat protein; assay: apparent KD of MS2 coat protein, switch OFF state (with FMN for OFF switches, without FMN for ON switches); designed switch direction (-1 OFF switch, 1 ON switch): 1; higher = weaker reporter binding; details: FMN input: 0 or 200 uM; Eterna round: R93 (includes R88 designs)
# How it was run: (§2)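 Titrations with SNAP-549-labelled MS2 coat protein ran in twofold steps from 0.7 or 1.5 nM to 3 µM, each step taking 0.8–1.5 h at the start and 10–20 min toward the end. The targets were designed RNA switches transcribed on-chip from Illumina sequencing clusters, held in 100 mM Tris-HCl pH 7.5, 80 mM KCl, 4 mM MgCl2, without or with constant ligand. Apparent KD was taken per design as the median of normalised cluster binding-curve fits.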
# [4] = test system: MS2 coat protein; assay: apparent KD of MS2 coat protein, switch ON state; designed switch direction (-1 OFF switch, 1 ON switch): 1; higher = weaker reporter binding; details: FMN input: 0 or 200 uM; Eterna round: R93 (includes R88 designs)
# How it was run: as §2
Sequence,apparent KD of MS2 coat protein ([2]; input ligand: FMN 200 uM),apparent KD of MS2 coat protein ([2]; input ligand: none),apparent KD of MS2 coat protein [3],apparent KD of MS2 coat protein [4],also measured
GGCAGCCCUCAGAAGGGAGUGCGAUAAUCGCACUCAGGAUAUGAGGAUCACCCAUAUCAAGCUGCCACUGAGGCAAAGCCUCAG [#SharedSequence - IEx NG 1-1] (puzzle (switch architecture): Inverted Exclusion NG 1),–,–,–,–,apparent KD of MS2 coat protein ([1]; input ligand: FMN 200 uM): 57.4 nM; apparent KD of MS2 coat protein ([1]; input ligand: none): 12.1 nM
"CAGCAAUUCUUAGGAUAUGCUCAGGAAUACUGAGCAGAAGGAAGAUAUACCUGAGGAUCACCCAGGUUAAACUGAAGCUGAAAA [Same State NG1 - A3C, U17G Submission 7A]",28.5 nM,21.2 nM,–,–,–
GUCCCUACAUGAGGAUCACCCAUGUGGGCAGUAAGAAGCCCACAGGAUAUGCGAAGGAGGACAUAGCAGAAGGGUGGUGUUUAG [Reaninveri] (puzzle (switch architecture): Same State NG 3),–,–,–,–,apparent KD of MS2 coat protein ([1]; input ligand: FMN 200 uM): 138 nM; apparent KD of MS2 coat protein ([1]; input ligand: none): 625 nM
CUUAGUUUGUAGAAGGGUGACAUGAGGAUCACCCAUGUGCGUAGCCUGAAAGACCAGGGUACGCCACAGGAUAUACAAAGUAAG [Onenisa] (puzzle (switch architecture): Inverted Same State NG 2),–,–,–,–,apparent KD of MS2 coat protein ([1]; input ligand: FMN 200 uM): 84.9 nM; apparent KD of MS2 coat protein ([1]; input ligand: none): 57.4 nM
AAGAAGCUCACAGGAUAUCAGUAUAUGCUAUCUAGCGUAUUAAUGAACUGCUGAGAAGGGUGAGACAUGAGGAUCACCCAUGUA [Angeon] (puzzle (switch architecture): Small Loop Same State NG 1),–,–,–,–,apparent KD of MS2 coat protein ([1]; input ligand: FMN 200 uM): 54 nM; apparent KD of MS2 coat protein ([1]; input ligand: none): 120 nM
GGUCGUCACAUCUACAUGAGGAUCACCCAUGUCGAAAGACAUGAGGAUAUGCAUCCUAAUUGGAUGCAGAAGGCAUGGACGACC [Mat - Same State NG 3 - JL Mod - D22],65.1 nM,1920 nM,–,–,–
AGAACAUGAGGAUCACCCAUGUUAAGGUCGGUAAAUAAGGGUGAGGAUAUGCUUAAAAUAAGGUAGCAGAAGGUGCUUGGUGCA [SameState #76 NG3],146 nM,163 nM,–,–,–
CACGUCCACACAGGAUAUGCUGGACUUUGUCCAGCAGAAGGGUGACAACAUGAGGAUCACCCAUGUAGGACGUGUAUAUUUAAG [Mat - Same State NG 1 - Eli mod - D100],188 nM,2090 nM,–,–,–
ACAUACUUUCGAGGAUAUCGGUGAUAAAUUUGACGAGAAGGCGAUAAAAGAUAUAAUCUUAUAGACAUGAGGAUCACCCAUGUA [JR_SSNG1_Sub015],36.8 nM,43.3 nM,–,–,–
CACACAUGAGGAUCACCCAUGUCGUGGGCGGAAAACUGUGCACAGGAUAUGGUGAGGGCAACUCACCAGAAGGGUGGUCAGGAA [Zaenen],63.1 nM,100 nM,–,–,–
UUACGUCCCGUUUACAUGAGGAUCACCCAUGUCGAAAGAACCGAGGAUAUGCUACCUAGUUGGUAGCAGAAGGCGGAAACGUCG [salish99_SSNG3_r02_008],42.3 nM,25.9 nM,–,–,–
AAAACAUGAGGAUCACCCAUGUAAAGAACGGUUAAUAAAAGUGAGGAUAUACAAAAUUUUAUAUAGUAGAAGGCACUGGGUACA [JR_SSNG3_Sub008],23.9 nM,20.6 nM,–,–,–
CGUGUGGCAUGAGGAUAUGGUCAGCUUUGCUGACCAGAAGGCAUGUCAAUAGACAUGAGGAUCACCCAUGUAGUUAACACACGA [Mat - Same State NG 1 - JL Mod - D23],44 nM,575 nM,–,–,–
CACACAUGGUGAGGAUAUGCAAAGGAUCACCUUGUAGAAGGCAUCAGGGUAGAAGGUGCAAGGAUCACCUGUAAGGAUAUAUCC [pwkr2 ssNG1 DX.24],395 nM,1210 nM,–,–,–
CGGAUGCAAAUAAAACAUGAGGAUCACCCAUGUGAGUCUCAUGAGGAUAUGCAGGUCAAAGACUUGCAGAAGGCAUGGCGUCCG [Mat - Same State NG 3 - JL Mod - D71],107 nM,1840 nM,–,–,–
CAUGUCCUCACAGGAUAUGCUGGACUUUGUCCAGCAGAAGGGUGAACAUGAGGAUCACCCAUGUUGUGGACAUGUAUAUUUAAU [Denovo 12],526 nM,394 nM,–,–,–
UGUUUGAGCAUAGGAUAUACUGGGAAGGUCCACAUGAGGAUCACCCAUGUAGAGGCUGUUAGACAGUAGAAGGGUGAUCCGAUA [Zariatbege],410 nM,9.94 nM,–,–,–
GCAGAAGGUGCAGAGGAUCACCCUGUAAGGAUAUGCAUUAGCAAGGAUAUACAGAGGAUCACCCUGUAGAAGGUGCACUACUCU [pwkr2 ssNG3 DX.2],420 nM,2070 nM,–,–,–
GCGGGCCUCACAGGAUAUCUGGUCCCGACAUGAGGAUCACCCAUGUAGGGCAGCUUAAGAAUGCCAGAGAAGGGUGACCAAUAU [Xexemaeron],102 nM,315 nM,–,–,–

Sequence,apparent KD of MS2 coat protein ([2]; input ligand: FMN 200 uM),apparent KD of MS2 coat protein ([2]; input ligand: none),apparent KD of MS2 coat protein [3],apparent KD of MS2 coat protein [4],also measured
GAAAAACAUGAGGAUCACCCAUGUAAAAAUAUGGGAGGAUAUUGAAACACGAAAGUCAAACAAGAAGGCCUAAAAG [Garnet 3],–,–,147 nM,44.1 nM,–
GAUAGACAUGAGGAUCACCCAUGUAGAAUUAUGGGAGGAUAUACAAAGACGAGAGUCAGAGUAGAAGGCCUAGGAG [salish99-ss1-158],–,–,69.2 nM,28.1 nM,–
AACAAUCUAUCUGAGGAUAUGUGUCGAAAGACAUGAGGAUCACCCAUGUAAAAACAUGAAAAAUCACAGAAGGCAGAUAGAUUGA [SS2: 1144],–,–,144 nM,59.3 nM,–
AGGCAACAUGAGGAUCACCCAUGUCGCAACAAUCAAGGAUAUGGGAGAAAUAAGAAAAUACCAGAAGGUGAAAUAA [Telelabe],–,–,92 nM,60.7 nM,–
UCACUCACGUUAGGAUAUGGAUCGGAAAACGAUCCAGAAGGAACCUGCAAACCUGAGGAUCACCCAGGUUCCAAUAACGAGUGA [SameSame 7 - Jieux - Same State NG 1],259 nM,368 nM,–,–,–
AAAAAACAUGAGGAUCACCCAUGUAAUUAAAACGCAGGAUAUAGAAAAAAAAAAAUGUUACUAGAAGGGUGAAAAA ['Same State 1'],–,–,62.9 nM,113 nM,–
"AUAACACAUGAGGAUCACCCAUGUAGAAAUAAGGGAGGAUAUACAAAGACGAAAGUCAAAGUAGAAGGCUCAAAAG [76%, Meechl 4]",–,–,18.6 nM,14.8 nM,–
GCUGCUAUCGCAGGAUAUUACAUGGGAAAGAAUACAUGAGGAUCACCCAUGUAAAAGAUCAUAAAUAAGAAGGGCGAUAGCAGC [Lame State 6 - Jieux - Same State NG 2],159 nM,774 nM,–,–,–
"AGGAAACAUGAGGAUCACCCAUGUAAAAAUAUGGAAGGAUAUGGAAACACGAAAGUGAAACCAGAAGGUCCGAAAA [77%, Mat - Mod of Eli, 19]",–,–,23.1 nM,13.1 nM,–
AACGUGACGACAUAGGAUAUGUACACACGUACAUGAGGAUCACCCAUGUGACUAGUAAUCGUGUGGCAGAAGGGUGAAGUCUCGA [Anzasousra],–,–,31.4 nM,21.4 nM,–
AAAAAACAUGAGGAUCACCCAUGUAAUAAAACGUCAGGAUAUUGAUUUUAUUAUUUAUUGCAAGAAGGGACAAAAA [Same State 1 - Omei 2],–,–,40.3 nM,20.4 nM,–
GAAAAACAUGAGGAUCACCCAUGUAGAAAUAUGGGAGGAUAUACAAAGACGAAAGUCAAAGUAGAAGGCCCAAAAG [Starry Same State 1.1 (mat747 round 1 mod)],–,–,38.8 nM,24.1 nM,–
CGCAAACAUGAGGAUCACCCAUGUCAAUGUGGUCAAGGAUAUGGGUUCCUAAAUGGAACACCAGAAGGUGAAAAGA [Anesatve],–,–,54.5 nM,20 nM,–
AAAAAACAUGAGGAUCACCCAUGUGCAAAAUUCGCAGGAUAUUCUUCUCUUAAAUGAGAGGGAGAAGGGUGUAAAA [Nob's Hobby 24 - Jieux - Same State 1],–,–,43.3 nM,18.2 nM,–
AAAGAAAAACUAGAGGAUAUCCGAGUGGUAACAUGAGGAUCACCCAUGUGAAGAAAGGAGCGUGAGGAGAAGGCUAGAAGAAAAA [JL Nando mod 24],–,–,146 nM,11 nM,–
AAGAAACAUGAGGAUCACCCAUGUAAAAUAAACACAGGAUAUGCGAAAAGAAACAAAGAAGCAGAAGGGUGAAGAA [Mat - Same State 1 - Tesla mod - 56],–,–,36.2 nM,16.9 nM,–
AAAGUACAUGAGGAUCACCCAUGUUGGAACAAAGCAGGAUAUGUACAAAAGGAAAUAAAUACAGAAGGGCUAAGAA [Same State #2],–,–,32.9 nM,20 nM,–
AGAAGACAUGAGGAUCACCCAUGUGGGAAUAUGGGAGGAUAUACAAAGACGAGAGUCAGAGUAGAAGGCCUAGGCC [salish99-ss1-110],–,–,131 nM,49.8 nM,–
GCUGUCGCAUGAGGAUAUGGUCAGCUUUGCUGACCAGAAGGCAUGUCGAUAGACAUGAGGAUCACCCAUGUAGUAAAGACAGCA [jl-sng1-2.08 jl mod],66.6 nM,693 nM,–,–,–
